The target of one series is T1, mouse IL-22 (mIL-22) (Mus musculus, UniProt Q9JJY9).
T1 sequence (Q9JJY9 34-179): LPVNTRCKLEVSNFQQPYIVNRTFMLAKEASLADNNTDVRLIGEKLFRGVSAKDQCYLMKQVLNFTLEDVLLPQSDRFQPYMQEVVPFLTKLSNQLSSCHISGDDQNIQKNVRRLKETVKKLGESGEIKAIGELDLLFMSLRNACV
Briefly: Inhibition of mIL-22 induced Stat3 phosphorylation in HepG2 cells. The class given is cell-based. The conditions noted are these: mAb 6.7 nM. How it is done:
One of the immediate functions of IL-22 is inducing phosphorylation of Stat3, a protein in the signaling pathway of IL-22. The 10 antibodies of Table 1 were tested in a cell-based assay for blocking IL-22-dependent phosphorylation of Stat3 through human or mouse IL-22 in HepG2 cells. Antibody hum10 and mutant CPE-LC-E049K were used as controls. Four concentrations of each of the antibodies were used: 0.11 μg/mL, 0.33 μg/mL, 1 μg/mL, and 3 μg/mL.
30,000 human HepG2 cells were seeded in 96 well plates and serum starved overnight. Three-fold dilutions of anti-IL-22 antibodies and control hum10 antibody at concentrations of 0.11 μg/mL, 0.33 μg/mL, 1 μg/mL, and 3 μg/mL were incubated with 200 ng/ml of hIL-22 or mIL-22 at 37° C. for one hour then added to the serum starved human HepG2 cells. The HepG2 cells were incubated with the antibody-IL-22 mixture at 37° C. for 20 minutes. After incubation, HepG2 cells were washed with PBS and lysed. Half of the cell lysate was used to determine the level of phosphorylated Stat3 using Cell Signaling kit #7300 following the vendor's protocol and the other half of the cell lysate was used to determine the level of total Stat3 by Western blot analysis using a Santa Cruz rabbit polyclonal antibody (Sc-7179) against human Stat3.

For a further series, the target named is T2, mouse IL-22 (Mus musculus, UniProt Q9JJY9).
T2 sequence (Q9JJY9 34-179): T1 sequence (Q9JJY9 34-179)
Briefly: SPR capture assay, affinity to mouse IL-22. The class given is binding. Particulars: mouse IL-22, SPR. On the procedure:
The affinity of the 10 antibodies of Table 1 was measured by Surface Plasma Resonance (SPR) using a capture assay in PBS buffer to generate binding curves at four different concentrations of each antibody (0.05, 0.1, 0.5, and 1.0 μg/ml). The Ka, Kd and KD values for the mutant antibodies were calculated from the curves for each of the antibodies.
The affinity of the 10 antibodies of Table 1 was measured by Surface Plasma Resonance (SPR) using a capture assay on a SPR-2 instrument (SierraSensiors, Hamburg, Germany). The antigens hIL-22 and mIL-22 were immobilized on chips. The running buffer for the assay contained 10 mM HEPES with a pH of 7.4, 500 mM NaCl, and 0.05% TWEEN® 20. […] The off-rate was measured for 6 minutes. Binding constants were calculated using the curve fitting software Analyzer2 (Sierra Sensors). Sensorgrams were analyzed with the instrument specific software and with BIAevaluation 4.1 software. The binding data were analyzed using the Langmuir 1:1 model (human IL-22) or a model for a heterogeneous ligand ([…]).
The antibodies were tested at four different concentrations of each antibody: 0.33 nM, 0.67 nM, 3.3 nM, 6.7 nM for hIL-22; 1, 2, […] for mIL-22. Antibody CPE-LC-E049K was used as a control.

Series [1] can be described thus: Pharmacokinetics in NOD SCID mice, plasma concentration by solid phase ELISA. The class given is in vivo, mouse. Particulars: after a 10 mg/kg IV injection. On the procedure:
The pharmacokinetics of the mutant antibodies of Table 1 were analyzed in mice. The antibodies were injected into mice by IV injection at two doses 0.3 mg/kg and 10 mg/kg. The concentrations of the injected antibodies in the blood plasma were measured by solid phase ELISA.
Two anti-IL-22 antibodies CPS02 and CPS09 were tested in NOD SCID mice. The antibodies were injected via IV at two dosages: 0.3 mg/kg and 10 mg/kg. Three mice were used for each dose group. Blood samples were retrieved from the mice at 10 min, 1 h, 3 h 7 h, 24 h, 48 h, 96 h, 168 h, 240 h and 336 h after the IV injection. The concentrations of the injected antibodies in the blood samples were measured by solid phase ELISA.

B1: CPS02: mutant anti-IL-22 antibody binding human and mouse IL-22; light chain LC-06, heavy chain HC-08 (antibody, V domains shown)
VH: QVQLVQSGAEVKKPGASVKVSCKASGYIFRSYWIHWIRQPPGKGLEWIGRIYPGTGRTYYNEKFKGRVTISADKSISTAYLQWSSLKASDTAMYYCARSYDSSVAYWGQGTLVTVSS
VL: AIQLTQSPSSLSASVGDRVTITCSASSSVSYMHWYLQKPGQSPQLLIYKTRKLASGVPSRFSGSGSGTDFTFTISSLEAEDAATYYCQQWSSNPYITFGQGTKVEIKR
For the molecule B1, the “STAT3 Phosphorylation; mIL22 % inhibition” value with mouse IL-22 (mIL-22) is recorded as 76.18%. In the series with mouse IL-22, the ka is 166000 M·s and the kd was determined as 0.000545 s⁻¹. Also, in series [1], the half-life in mice entry is “about 18 hours”.

The values above are taken from patent US11834472B2, “Anti-IL-22 antibodies, antibody fragments, their immunoconjugates and uses thereof” (BioAtla, Inc., priority 2018, dated 2023).
